Experimental data as given in patent US20210009693A1 (MABSPACE BIOSCIENCES SUZHOU, published 2021).
Positions count from the first letter of the chain named. Read-outs that look alike come from different tables or passages of the source. One block for each binder: values may come before it.

Experiments:
[1] = target: T1, wild type human PD-L1-Fc protein (SEQ ID NO: 107) (human); experiment: ELISA on captured PD-L1-Fc, as in Example 18A
T1 construct: Extracellular human PD-L1 (amino acid 19-238) with Fc fragment of human IgG1, expressed in 293T cells and used as culture supernatant; also called WT PD-L1; wild-type PD-L1
T1 sequence (chain, as listed by the source limits assumed): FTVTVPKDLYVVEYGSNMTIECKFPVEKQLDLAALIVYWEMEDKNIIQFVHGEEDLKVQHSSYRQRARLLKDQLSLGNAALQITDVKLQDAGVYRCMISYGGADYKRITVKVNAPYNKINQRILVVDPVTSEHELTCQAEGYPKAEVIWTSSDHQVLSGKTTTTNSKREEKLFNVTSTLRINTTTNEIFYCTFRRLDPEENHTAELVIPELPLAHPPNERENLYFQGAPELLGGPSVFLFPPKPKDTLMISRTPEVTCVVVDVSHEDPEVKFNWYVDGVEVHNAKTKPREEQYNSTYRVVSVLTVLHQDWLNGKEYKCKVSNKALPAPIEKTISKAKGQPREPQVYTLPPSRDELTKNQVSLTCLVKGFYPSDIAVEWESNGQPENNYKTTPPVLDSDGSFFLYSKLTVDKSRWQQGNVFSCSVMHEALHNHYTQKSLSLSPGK

[2] = target: T2, human PD-L1-Fc mutant E58A (human); experiment: ELISA on captured PD-L1-Fc, as in Example 18A
T2 construct: Position 58 counts on native human PD-L1 (NP_054862.1); also called E58A mutant
T2 sequence (chain, as listed by the source E58A E58A limits assumed): as the sequence (chain, as listed by the source limits assumed) above, with E40A counted along it

[3] = target: T3, Recombinant Mouse PD-L1/CD274 Protein (mPD-L1-his) (mouse, UniProt Q9EP73 19-238); experiment: ELISA, 20 ug/ml antibody on coated mouse PD-L1 (his-tagged per text, mPD-L1-Fc per sheet title)
T3 construct: range 19-238; ACRO Biosystem PD1-M5220; also called mouse PD-L1-his
T3 sequence (Q9EP73 other isoform, or with tags, fused parts or gaps limits assumed): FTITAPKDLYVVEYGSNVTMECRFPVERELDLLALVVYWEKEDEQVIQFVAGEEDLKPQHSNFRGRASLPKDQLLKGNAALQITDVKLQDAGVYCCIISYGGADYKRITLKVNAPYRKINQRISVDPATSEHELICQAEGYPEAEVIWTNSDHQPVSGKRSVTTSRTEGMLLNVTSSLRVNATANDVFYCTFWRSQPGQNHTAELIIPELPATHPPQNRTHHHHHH
Procedure: High-binding clear polystyrene 96 well plates (Nunc) were coated with 100 μl/well of 1 μg/ml mouse PD-L1-his in high pH coating buffer and incubated overnight at 4° C. Then plates were washed once on an automatic plate washer using washing buffer (PBS+0.1% Tween 20 (Sigma)). 200 μl of blocking buffer (PBS+1% BSA+1% normal goat serum+0.05% Tween-20) was added to each well and incubated for 2 hours at room temp. Then add 20 μg/ml purified hybridoma mouse antibodies in dilution buffer (PBS+1% BSA+1% normal goat serum+0.01% Tween-20) and incubate for 1 hour at RT. The plates were then washed 3 times with 250 μl/well washing buffer. 100 μl/well of a solution of HRP conjugated goat anti-mouse Fc antibody (Abcam) in dilution buffer was then added to each well of the plate. After that the ELISA plates were allowed to incubate for 60 min at RT then plates were washed 3 times with 250 μl/well washing buffer. Finally, 100 μl/well of TMB was added to each well and the reaction was terminated using 0.64M H₂SO₄. The plates were read on a Thermo Multiscan FC at 450 nM (see FIG. 6F).

[4] = target: hPD-L1 (antigen of the Biacore assay) (human, UniProt Q9NZQ7 19-238, limits assumed); experiment: SPR (Biacore), antibody captured on anti-human Fc, antigen in flow
Chain of hPD-L1 (antigen of the Biacore assay) (Q9NZQ7 19-238 limits assumed): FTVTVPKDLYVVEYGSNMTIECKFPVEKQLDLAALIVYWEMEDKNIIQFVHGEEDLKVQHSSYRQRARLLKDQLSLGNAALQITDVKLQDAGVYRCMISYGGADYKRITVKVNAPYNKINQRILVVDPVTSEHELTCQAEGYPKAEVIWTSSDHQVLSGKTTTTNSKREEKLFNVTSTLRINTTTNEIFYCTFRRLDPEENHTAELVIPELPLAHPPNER
Procedure: A CM5 sensor chip was activated in each flow cell by 7-min injection (10 μl/min) of freshly prepared 1:1 50 mM N-hydroxysuccinimide (NHS): 200 mM 1-ethyl-3-(3-dimethylaminopropyl)-carbodiimide (EDC). Then anti-human Fc antibody (GE Healthcare) in a concentration of 10 μg/ml in 10 mM sodium acetate buffer PH 5.0 was injected onto the activated chip at 10 μl/min (HBS-EP running buffer: 10 mM HEPES, 150 mM NaCl, 3.4 mM EDTA, 0.005% surfactant P20, pH 7.4). The remaining active coupling sites were blocked by 7 min injection of 1M ethanolamine at 10 μl/min. The immobilization level of each flow cell is ˜9000RU. Antibodies were captured in FC2 by anti-human Fe IgG (GE Healthcare) to 200˜300RU. FC1 was used as the reference cell. Antigen was injected at varying concentrations after capture of antibody. The association time for antibody binding antigen is 180s. Surface Regeneration condition is 120s at 10 μl/min in Gly pH1.5. The signals with captured antibody subtracted from those without captured antibody were calculated with Biacore X100 evaluation software ver. 2.0 (Biacore).

[5] = target: T4, Recombinant Human PD-L1/CD274 Protein (hPD-L1-his) (human, UniProt Q9NZQ7 19-238); experiment: ELISA on coated hPD-L1-his
T4 construct: range 19-238; ACRO Biosystem PD1-H5229, made in HEK293; also called human PD-L1-his; hPD-L-his
T4 sequence (Q9NZQ7 other isoform, or with tags, fused parts or gaps limits assumed): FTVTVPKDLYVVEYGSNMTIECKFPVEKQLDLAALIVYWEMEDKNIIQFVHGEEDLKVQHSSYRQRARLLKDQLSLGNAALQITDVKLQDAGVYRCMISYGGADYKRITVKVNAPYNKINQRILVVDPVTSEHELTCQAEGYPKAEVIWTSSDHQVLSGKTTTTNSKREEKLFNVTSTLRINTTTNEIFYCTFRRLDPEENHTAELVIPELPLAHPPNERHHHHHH

[6] = target: T5, Human PD-L1/CD274 with C-Fc Tag (hPD-L1-Fc) (human, UniProt Q9NZQ7 19-238); experiment: blocking ELISA on coated hPD-L1-Fc; blocked ligand: biotinylated hPD-1-N297A
T5 construct: range 19-238; ACRO Biosystem PD1-H5258, made in HEK293; also called human PD-L1-Fc; not shown: Fc fragment of human IgG1 at C-terminus
T5 sequence (Q9NZQ7 19-238 limits assumed): as the sequence (Q9NZQ7 19-238 limits assumed) above
Procedure: High-binding clear polystyrene 96 well plates (Nunc) were coated with 100 μl/well of coating solution consisting of 1 μg/ml hPD-L1-Fc overnight at 4° C. Then the plates were washed once on an automatic plate washer using washing buffer (PBS+0.1% Tween 20 (Sigma)). 200 μl of blocking buffer (PBS+1% BSA+1% normal goat serum+0.05% Tween-20) was added to each well and incubated 2 hours at room temp. […] The plates were then washed 3 times using the method described above. […] After the plates were washed 3 times, 100 μl/well of a solution of 1:5000 diluted HRP conjugated Neutravidin antibody (Pierce) in dilution buffer was then added to each well of the plate. After that the ELISA plates were allowed to incubate for 60 min at RT, then the plates were washed 3 times with 250 μl/well washing buffer. Finally, 100 μl/well of TMB was added to each well and the reaction was terminated using 0.64M H₂SO₄. The plates were read on a Thermo Multiscan FC at 450 nM (see FIG. 18A to 18D).

hPD-L2-Fc = target: T6, hPD-L2-Fc (human, UniProt Q9BQ51 20-219); experiment: ELISA, plate coated with hPD-L2-Fc
T6 construct: Acrobiosystems PD2-H5251; also called human PD-L2 protein; not shown: Fc tag
T6 sequence (looked up): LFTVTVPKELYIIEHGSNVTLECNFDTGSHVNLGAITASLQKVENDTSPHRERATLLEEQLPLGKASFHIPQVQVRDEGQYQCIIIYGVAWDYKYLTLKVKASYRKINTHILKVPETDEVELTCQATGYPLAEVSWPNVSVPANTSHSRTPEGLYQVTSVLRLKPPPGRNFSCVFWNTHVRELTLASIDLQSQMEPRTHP
Procedure: Briefly, high-binding clear polystyrene 96 well plates (Nunc) were coated with 100 μl/well of a 0.5 μg/ml human PD-L1-Fc (Acrobiosystems, Cat #PD1-H5258) or 100 μl/well of a 1 μg/ml hPD-L2-Fc (Acrobiosystems, Cat #PD2-H5251), respectively, in high pH coating buffer (0.16% Na2CO3+0.3% NaHCO₃, pH 9.8) and incubated overnight at 4° C. Then the plates were washed once on an automatic plate washer using washing buffer (PBS+0.1% Tween 20 (Amresco)). 200 μl of blocking buffer (PBS+1% BSA+1% normal goat serum+0.05% Tween-20) was added to each well and incubated for 2 hours at room temp. Then add 100 μl 2 μg/ml purified PD-L1 antibodies with dilution buffer (PBS+1% BSA+1% normal goat serum+0.01% Tween-20) and incubate for 1 hour at RT. The plates were then washed 3 times with washing buffer. 100 μl/well of a solution of HRP conjugated goat anti-mouse IgG antibody (1:20000, Abcam) in dilution buffer was then added to each well of the plate. After that the ELISA plates were allowed to incubate for 60 min at RT then the plates were washed 3 times with 250 μl/well washing buffer. Finally, 100 μl/well of TMB was added to each well for 15 min and the reaction was terminated using 50 ul/well of 0.16 M/L sulfuric acid. The plates were read on a Thermo Multiscan FC at 450 nM (see FIG. 6G).

[7] = target: T4, Recombinant Human PD-L1/CD274 Protein …; experiment: ELISA on coated hPD-L1-his; remark: listed apart in the source

B2: 18G4-chimeric (antibody, V domains shown)
VH: QVQLQQPGTALVKPGASVKLSCKASGYTFSSYYIHWVKQRPGQGLEWIGNINPFNGGSIYNEKFKNKASLTVDTSSNTAYMQLSSLTSEDSAVYYCARWHFDYWGQGTSLTVSS
VL: DIVMTQSPSSLAVTAGEKVTLKCKSSQSLLWSGNQNNYLSWYQQKQGQPPKLLIYGASIRESWVPDRFTGSGSGTDFTLTIGNVSAEDLAVYYCQHNHGSFLPYTFGGGTRLEIK
notes: Mouse variable regions fused to a human IgG1 constant region
Kd [4]: 11.3 nM
koff [4]: 0.00515 s⁻¹
kon [4]: 450000 M⁻¹ s⁻¹

B3: 23F11-H4L6 (antibody, V domains shown)
VH: QVQLVQSGAEVKKPGASVKLSCKASGYIFTTYWMHWVKQRPGQGLEWIGMIQPNSGGTKYNEKFKKKATLTVDKSISTAYMELSRLTSDDTAVYYCARGAGTVDYFDYWGQGSTLTVSS
VL: DIVLTQSPASLAVSVGQRATITCRASESVDIYGNSFMHWYQQKPGQPPKLLIYRASNLESGIPARFSGSGSRTDFTLTINPVEANDTATYYCHQSTEDPYTFGGGTKLEIK
notes: produced in 293 cells; light chain constant region not described; also called humanized 23F11 H4L6
EC50 (read off the curve) [5]: ~0.002 µg/mL
IC50 (read off the curve) [6]: ~0.04 µg/mL

B5: 23A11-H3L3 (antibody, V domains shown)
VH: B3 VH with Q1L, M34I, E62D, K63Q, K66N, K67R, S113T, T116S, V117I
VL: B3 VL with P47S, T96N, E97D, I110T
notes: Humanized; also called humanized 23A11 H3L3
EC50 (read off the curve) [7]: ~0.002 µg/mL
Kd [4]: 74.1 nM
koff [4]: 0.0542 s⁻¹
kon [4]: 732000 M⁻¹ s⁻¹
IC50 (read off the curve) [6]: ~0.07 µg/mL

B9: 23A11-H5L5 (antibody, V domains shown)
VH: LVQLVQSGAEVKKPGASVKVSCKASGYIFTTYWIHWVRQAPGQGLEWIGMIQPNSGGTKYNDQFKNRVTLTVDTSISTAYMELSRLRSDDTAVYYCARGAGTVDYFDYWGQGTTLSISS
VL: B3 VL with P47A, H93Q, T96N, E97D, I110T
notes: produced in 293 cells; also called humanized 23A11 H5L5
EC50 (read off the curve) [7]: ~0.002 µg/mL
IC50 (read off the curve) [6]: ~0.1 µg/mL

B10: 4B6-H4L3 (antibody, V domains shown)
VH: QVQLVQSGAEVKKPGASVKVSCKASGYVFTDYYMNWVRQAPGQGLEWIGDINPNNGGTSYNQKFQGRVTVTVDTSIRTAYMELSRLRSDDTAVYYCVKWGDGPFAYWGQGTLVTVSS
VL: DIQMTQSQSSLSASVGDRVTITCQASQNVGAAVAWYQQKPGKAPKLLIYSASNRYTGVPSRFSGSGSGTDFTLTISSMQPEDIATYFCQQYSNYPTFGSGTKLGIK
notes: Humanized; also called humanized 4B6 H4L3
Kd [4]: 11.3 nM
koff [4]: 0.00148 s⁻¹
kon [4]: 132000 M⁻¹ s⁻¹
IC50 (read off the curve) [6]: ~0.03 µg/mL

Results, then the binder that gave them:

Mean OD450 [1]: 1.45 OD450
OD450 nM of sample-1 [1]: 1.56 OD450
OD450 nM of sample-2 [1]: 1.34 OD450
% of binding of Ab to E58A mutant vs. that to WT PD-L1 [2]: 117%
Mean OD450 [2]: 1.7 OD450
OD450 nM of sample-1 [2]: 1.52 OD450
OD450 nM of sample-2 [2]: 1.88 OD450
binding result [3]: binds
B1: 18G4 (antibody, V domains shown)
VH: B2 VH
VL: B2 VL
notes: Mouse monoclonal from hybridoma; also called mouse monoclonal antibody 18G4

binding result (hPD-L2-Fc): no binding (tested: 2 ug/ml)
binding result [3]: no binding (tested: 20 ug/ml)
B4: 23A11 (antibody, V domains shown)
VH: LVQLQQPGAELVKPGASVKLSCKASGYIFTTYWIHWVKQRPGQGLEWIGMIQPNSGGTKYNDQFKNRATLTVDKSSTTASMQLSGLTSEDSAVYYCARGAGTVDYFDYWGQGTTLSISS
VL: B3 VL with A12T, V15L, T22S, P47S, N85D, T87V, T96N, E97D, I110T
notes: also called mouse monoclonal antibody 23A11; clone 23A11

EC50 (read off the curve) [7]: ~0.002 µg/mL
IC50 (read off the curve) [6]: ~0.05 µg/mL
B6: 23A11-H5L3 (antibody, V domains shown)
VH: B9 VH
VL: B3 VL with P47S, T96N, E97D, I110T
notes: produced in 293 cells; also called humanized 23A11 H5L3

EC50 (read off the curve) [5]: ~0.004 µg/mL
IC50 (read off the curve) [6]: ~0.05 µg/mL
B7: 23F11-H6L6 (antibody, V domains shown)
VH: B3 VH with L20V, K38R, R40A, K74T, T87R
VL: B3 VL
notes: produced in 293 cells; light chain constant region not described; also called humanized 23F11 H6L6

EC50 (read off the curve) [5]: ~0.002 µg/mL
Kd [4]: 103 nM
koff [4]: 0.0448 s⁻¹
kon [4]: 435000 M⁻¹ s⁻¹
IC50 (read off the curve) [6]: ~0.04 µg/mL
B8: 23F11-H6L4 (antibody, V domains shown)
VH: B3 VH with L20V, K38R, R40A, K74T, T87R
VL: B3 VL with H93Q
notes: Humanized; also called humanized 23F11 H6L4

IC50 (read off the curve) [6]: ~0.04 µg/mL
B11: 4B6-H4L4 (antibody, V domains shown)
VH: B10 VH
VL: B10 VL with Q8P, R54L, M78L
notes: produced in 293 cells; light chain constant region not described; also called humanized 4B6 H4L4
